Source: paper doi:10.1101/333286

Molecular target: F-actin (polymerized human platelet actin) (human) (UniProt P60709)
Assay: co-sedimentation

Row | percent of NMY-2 S1 fragment in the pellet with F-actin [%] | Substance
1 | 42 | NMY-2(S1)-MLC4-MLC5 complex, NMY-2(R252A) S1 fragment (from UniProt G5EBY3 1-874; Q09510 1-172; Q9XVI9 1-142)
2 | 91 | NMY-2(S1)-MLC4-MLC5 complex, NMY-2(S251A) S1 fragment (from UniProt G5EBY3 1-874; Q09510 1-172; Q9XVI9 1-142)
3 | 66 | NMY-2(S1)-MLC4-MLC5 complex, wild-type NMY-2 S1 fragment (from UniProt G5EBY3 1-874; Q09510 1-172; Q9XVI9 1-142)
